The text below walks through data of PMC4772129, “nagZ Triggers Gonococcal Biofilm Disassembly” (Scientific Reports, 2016).

The data set relates to CC(=O)N[C@H]1[C@H](Oc2ccc([N+](=O)[O-])cc2)O[C@H](CO)[C@@H](O)[C@@H]1O. In words: purified protein. The conditions noted are these: KPO4 buffer 200 mM, pH 8.0, 37 °C (standard assay).

By Km is commonly meant the concentration of substrate that gives half-maximal velocity.

For the substance NagZ (Neisseria gonorrhoeae FA 1090), the Km amounted to 3.2 mM.
